US6339070B1, “Gene construct encoding a heterologous prodrug-activating enzyme and a cell targeting moiety” (Zeneca Limited, priority 1997, dated 2002)
Entries after “also recorded” stand apart in the source; their conditions may differ.

Legend:
[1] = tested on: LoVo, CEA bearing, tumour cells; experiment: In vitro cell killing assay: cell-bound fusion protein plus PGP prodrug, SRB stain; type: cell-based; conditions: unbound protein washed off, PGP 1 hr, 4 days proliferation
Method: An in vitro cell killing assay was performed in which the (A5B7-CPG2 R6)2 fusion protein was compared to a “conventional” A5B7 F(ab′)2-CPG2 conjugate formed through linking A5B7 F(ab′)2 to CPG2 with a chemical heterobifunctional reagent. […] The cells were then washed to remove unbound protein material and subsequently resuspended in medium containing a CPG2 phenol prodrug (PGP, see Example 2 below) for a period of 1 hr, after which the cells were washed, resuspended in fresh media and left to proliferate for 4 days. Finally the cells were treated with SRB stain and their numbers determined.

[2] = Enzyme activity in plasma samples (methotrexate turnover, HPLC); type: in vivo; conditions: except when tumour enzyme activity exceeded 2.0 U/g
Method: To act as a standard for the assay, a CPG2 enzyme standard curve was prepared in 20% normal plasma to the following concentrations: 0.2, 0.4, 0.6, 0.8 and 1.0 U/ml. Similarly all test plasma samples were also diluted to 20% normal plasma. Further dilutions of these samples e.g. neat 1/10, 1/20 and 1/50 were also made using 20% normal serum. 200 μl aliquots of each CPG2 standard and test sample dilutions were equilibrated to 30°. 2 μl of 10 mM MTX was added to each of the tubes and mixed well. […]. The reaction was stopped after exactly 10 minutes (to increase the sensitivity of the assay the incubation time can be increased to 30 minutes) by adding 500 μl ice cold methanol+0.2% TFA and assayed for product using HPLC detection as described above in Example 10.

[3] = target: T1, human carcinoembryonic antigen (CEA) (Homo sapiens, UniProt P06731); experiment: CEA-binding ELISA, anti-CPG2 reporter antibody; conditions: COS-7 transient expression supernatant
T1 sequence (P06731 35-676): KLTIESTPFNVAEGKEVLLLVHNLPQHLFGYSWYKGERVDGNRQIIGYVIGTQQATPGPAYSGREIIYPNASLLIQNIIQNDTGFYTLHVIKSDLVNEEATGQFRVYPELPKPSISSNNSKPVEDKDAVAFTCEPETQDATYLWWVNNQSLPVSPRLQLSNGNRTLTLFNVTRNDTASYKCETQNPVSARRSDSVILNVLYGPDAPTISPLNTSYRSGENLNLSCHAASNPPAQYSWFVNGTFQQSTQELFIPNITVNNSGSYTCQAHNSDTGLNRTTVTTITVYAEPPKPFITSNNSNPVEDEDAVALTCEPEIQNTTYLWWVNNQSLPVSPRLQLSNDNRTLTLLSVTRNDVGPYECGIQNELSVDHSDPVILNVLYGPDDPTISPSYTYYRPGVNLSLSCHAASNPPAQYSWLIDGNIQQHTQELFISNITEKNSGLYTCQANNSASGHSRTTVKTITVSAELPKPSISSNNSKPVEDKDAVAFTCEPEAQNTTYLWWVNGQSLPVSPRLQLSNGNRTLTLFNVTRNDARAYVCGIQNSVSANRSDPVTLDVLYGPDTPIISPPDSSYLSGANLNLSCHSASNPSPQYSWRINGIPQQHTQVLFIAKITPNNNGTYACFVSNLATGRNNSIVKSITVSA
Method: The CEA ELISA using an anti CPG2 reporter antibody was essentially as above but instead of HRPO-labelled goat anti-human kappa antibody an 1/1000 dil. of a rabbit anti-CPG2 polyclonal sera was added, in 1% BSA in PBS-TWEEN™ and incubated at room temperature on a rocking platform for at 2 hours. The plate was washed three times with PBS-TWEEN™. A 1/2000 dilution of a goat anti-rabbit HRPO labelled antibody (Sigma A-6154) was then added and incubated at room temperature on a rocking platform for 1 hour, the plate was washed three times with PBS-TWEEN™ and once with PBS. To detect binding add 100 μl per well developing solution (one capsule of phosphate-citrate buffer—Sigma P4922—dissolved in 100 ml H2O to which is added one 30 mg tablet o-phenylenediamine dihydrochloride—Sigma P8412) and incubated for up to 15 minutes. The reaction was stopped by adding 75 μl 2M H2SO4, and absorbance read at 490 nm.

[4] = tested on: CPG2; conditions: COS-7 transient expression supernatant
[5] = tested on: recombinant LoVo tumour cells; experiment: Retention of secreted fusion protein on recombinant LoVo cells (cell based ELISA); conditions: CEA positive, without added anti-CEA antibody, listed as (A5B7-CPG2)2 fusion protein
Method: (§1) The vertical axis represents optical density readings measured at 490 nm and the horizontal axis the amount of added anti-CEA antibody (IIE6) measured in ng/ml of protein. […] Firstly, the cell lines were fixed and washed to remove the existing supernatant and any unbound material after which increasing concentrations of the anti-CEA antibody (IIE6) were added to the fixed cells. The assay was developed as described in the text to determine the level of retention of any secreted material and whether further added antibody would increase the signal. […] Since the recombinant Colo320DM are CEA negative no increase in signal due to anti-CEA antibody the results for these cells would be expected. In the case of the recombinant LoVo cells the addition signal due the amounts of antibody added in this assay may be swamped except at the highest dose due to the relative strength of the original signal.
(§2) LoVo colorectal tumour cells transfected with the (A5B7-CPG2)2 fusion protein gene have been shown both to secrete and to retain the fusion protein on their cell surface. […] The recombinant LoVo cells still gave such a strong initial signal that the added antibody made little difference to the overall signal obtained, which was considerably higher than any of the control experiments.

[6] = tested on: recombinant Colo320DM (CEA negative); experiment: Retention of secreted fusion protein on recombinant Colo320DM cells (cell based ELISA); conditions: listed as (A5B7-CPG2)2 fusion protein
Method: as §1, §2

B1: (A5B7 Fab-CPG2)2 fusion protein: chimaeric A5B7 anti-CEA Fab, heavy chain Fd linked via (G4S)3 linker to CPG2 R6, dimerised through CPG2 (antibody)
heavy: EVKLVESGGGLVQPGGSLRLSCATSGFTFTDYYMNWVRQPPGKALEWLGFIGNKANGYTTEYSASVKGRFTISRDKSQSILYLQMNTLRAEDSATYYCTRDRGLRFYFDYWGQGTTLTVSSASTKGPSVFPLAPCSRSTSESTAALGCLVKDYFPEPVTVSWNSGALTSGVHTFPAVLQSSGLYSLSSVVTVPSSNFGTQTYTCNVDHKPSNTKVDKTVGGGGSGGGGSGGGGSQKRDNVLFQAATDEQPAVIKTLEKLVNIETGTGDAEGIAAAGNFLEAELKNLGFTVTRSKSAGLVVGDNIVGKIKGRGGKNLLLMSHMDTVYLKGILAKAPFRVEGDKAYGPGIADDKGGNAVILHTLKLLKEYGVRDYGTITVLFNTDEEKGSFGSRDLIQEEAKLADYVLSFEPTSAGDEKLSLGTSGIAYVQVQITGKASHAGAAPELGVNALVEASDLVLRTMNIDDKAKNLRFQWTIAKAGQVSNIIPASATLNADVRYARNEDFDAAMKTLEERAQQKKLPEADVKVIVTRGRPAFNAGEGGKKLVDKAVAYYKEAGGTLGVEERTGGGTDAAYAALSGKPVIESLGLPGFGYHSDKAEYVDISAIPRRLYMAARLIMDLGAGK
light: QTVLSQSPAILSASPGEKVTMTCRASSSVTYIHWYQQKPGSSPKSWIYATSNLASGVPARFSGSGSGTSYSLTISRVEAEDAATYYCQHWSSKPPTFGGGTKLEIKRTVAAPSVFIFPPSDEQLKSGTASVVCLLNNFYPREAKVQWKVDNALQSGNSQESVTEQDSKDSTYSLSSTLTLSKADYEKHKVYACEVTHQGLSSPVTKSFNRGEC
Q: Which “cell kill with PGP prodrug compared with equivalent levels of A5B7 F(ab)2-CPG2 conjugate” value [1] does the source give for B1 here?
A: at least equivalent cell kill

Q: What about the “enzyme activity in plasma” value [2] of the same molecule?
A: No activity was seen in the plasma

Q: What about the “CEA binding detected with anti-CPG2 reporter antibody” value [3] of the same molecule?
A: exhibited clear CEA binding

Q: And the “CPG2 enzyme activity in cell supernatant” value [4]?
A: CPG2 enzyme activity to be present in the cell supernatant

Q: What about the “retention of expressed fusion protein on cell surface (OD 490 nm)” value [5] of the same molecule?
A: had retained the expressed fusion protein; also recorded: very strong OD 490 nm reading

Q: And the “retention of expressed fusion protein on cell surface (OD 490 nm)” value [6]?
A: some retention of the expressed fusion protein (probably non-specific); also recorded: much weaker reading than the LoVo cells but the signal was higher than background
